Values belong to the binder of their own block, whether it stands above or below them.
Target: T1, Human OX40L (antigen of the ForteBio affinity assay) (human, UniProt P23510 51-183, limits assumed)
T1 construct: It may be the Acro His-tagged protein, but nothing ties it to that; also called CD252; CD134L
T1 sequence (looked up): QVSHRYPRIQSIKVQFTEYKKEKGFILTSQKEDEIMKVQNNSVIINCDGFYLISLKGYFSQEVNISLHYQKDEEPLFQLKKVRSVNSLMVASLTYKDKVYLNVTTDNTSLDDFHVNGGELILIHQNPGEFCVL
Experiment: ForteBio (biolayer interferometry)

Kd: 0.379 nM
B1: HZ22 (antibody, human IgG4 S228P, kappa, V domains shown)
VH: QVQLQESGPGLVKPSQTLSLTCTVSGYAVTGDYAWSWIRQPPGKRLEWIGYISSSAGTNYNPSLKSRVTISVDTSKNQFSLKLSSVTAADTAVYYCARDLYYGGRNQWYFDVWGQGTLVTVSS
VL: DIQMTQSPSSLSASVGDRVTITCSATSSIIYMHWYQQKPGKAPKLLIYDTSKLPSGVPSRFSGSGSGTDFTLTISSLQPEDFATYYCHQRSSFPFTFGGGTKVEIKR
notes: Humanized antibody expressed in HEK293; also called humanized anti-OX40L antibody

Kd: 0.307 nM
B2: HZ18 (antibody, human IgG4 S228P, kappa, V domains shown)
VH: EVQLVQSGAEVKKPGATVKISCKVSGYSFTGYRIHWVQQAPGKGLEWMGYVDPYDDKTDYSQKSKGRVTITADTSTDTAYMELSSLRSEDTAVYYCAREGFAYWGQGTLVTVSS
VL: DIQMTQSPSSLSASVGDRVTITCTSSSSLRYMHWYQQKPGKAPKLLIYNTFDLASGVPSRFSGSGSGTDFTLTISSLQPEDFATYYCQQRTTYPPTFGQGTKLEIKR
notes: as for B1
